Experimental data from article PMC4658703.
Where two headings read alike, the source gives them in different places.

Experiments:
Assay in all cases: SPR
Human IGF2 (human) [1] = target: Human IGF2 (human)
Human IGF2 (human) [2] = target: Human IGF2 (human); remark: listed apart in the source
[3] = target: Echidna IGF2 (peak 2), purified recombinant (echidna)
Human IGF2 (human) [4] = target: Human IGF2 (human); remark: listed apart in the source
Chicken IGF2 (chicken) [5] = target: Chicken IGF2 (chicken) (UniProt P33717)
Chicken IGF2 (chicken), sequence (P33717 24-91): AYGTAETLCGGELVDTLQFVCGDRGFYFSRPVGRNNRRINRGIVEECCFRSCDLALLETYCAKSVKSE

[6] = target: Echidna IGF2 (peak 2), purified recombinant (echidna); remark: listed apart in the source
Chicken IGF2 (chicken) [7] = target: Chicken IGF2 (chicken) (UniProt P33717); remark: listed apart in the source
[8] = target: Echidna IGF2 (peak 2), purified recombinant (echidna); remark: listed apart in the source

Human IGF2R domain 11 (wild type), sequence (P11717 1508-1650): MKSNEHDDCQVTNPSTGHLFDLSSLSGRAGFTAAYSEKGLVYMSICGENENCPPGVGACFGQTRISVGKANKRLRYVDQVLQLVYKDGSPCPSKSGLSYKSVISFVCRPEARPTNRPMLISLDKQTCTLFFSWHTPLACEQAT

Row | Kd (Human IGF2 (human) [1]) [nM] | Kd (Human IGF2 (human) [2]) [nM] | Kd [3] [nM] | Kd (Human IGF2 (human) [4]) [nM] | Kd (Chicken IGF2 (chicken) [5]) [nM] | Kd [6] [nM] | kd1 (two state model, first step) (Human IGF2 (human) [1]) [s⁻¹] | Kd (Chicken IGF2 (chicken) [7]) [nM] | kd1 (two state model, first step) (Chicken IGF2 (chicken) [7]) [s⁻¹] | Kd [8] [nM] | kd1 (two state model, first step) [8] [s⁻¹] | ka1 (two state model, first step) (Human IGF2 (human) [1]) [m^-1 s^-1] | ka1 (two state model, first step) (Chicken IGF2 (chicken) [7]) [m^-1 s^-1] | Substance
1 | 427 | 325 | 328 | – | – | – | – | – | – | – | – | – | – | Chicken IGF2R domain 11 with echidna CD loop (domain or fragment)
2 | 244 | – | – | 329 | 412 | 385 | 0.106 | 244 | 0.259 | 256 | 0.138 | – | – | Echidna IGF2R domain 11 (domain or fragment)
3 | 46 | – | – | 64 | – | 77 | 0.23 | – | – | 53 | 0.106 | 5e+06 | – | Human IGF2R domain 11 (wild type) (from UniProt P11717 1508-1650) (domain or fragment)
4 | 15.3 | – | – | 15.5 | – | – | 0.044 | – | – | – | – | 2.76e+06 | – | Human IGF2R domain 11^(E1544K, K1545S, L1547V) (clone E4) (from UniProt P11717 1508-1650) (domain or fragment)
5 | 130 | – | – | 164 | 219 | 157 | 0.108 | 171 | – | 135 | 0.106 | – | 1.76e+06 | Opossum IGF2R domain 11 (domain or fragment)
